Reference: patent US6555322B1, “α2-macroglobulin receptor as a receptor for CTGF” (FibroGen, Inc., priority 1999, dated 2003)

Key:
MG63 cells [1] = assay: Internalization and degradation kinetics of 125I-CTGF with heparin or lactoferrin; format: cell-based, human
Description: Experiments were performed in which the internalization and degradation kinetics of CTGF were followed in the presence or absence of a known LRP ligand, lactoferrin. Kinetics were followed in the presence or absence of 3 μg/ml heparin or lactoferrin. ^125I-CTGF was bound to MG63 cells at 4° C. and free CTGF was removed by washing the cells. Fresh medium was placed on the cells, and the cells were transferred to 37° C. At each time point, the medium was removed and TCA precipitated. Degraded ^125I-CTGF was quantified by measuring the cpm in the non-precipitable fraction (see FIG. 17). In parallel experiments, ^125I-CTGF was bound to MG63 cells at 4° C. and free CTGF was removed by washing the cells. Fresh medium was placed on the cells, and they were transferred to 37° C. At each time point, the cell layer was removed by extensive trypsinization at 4° C. The cells were centrifuged and the cpm associated with the pellet, the internalized fraction, was determined (see FIG. 18).

LRP receptor = target: T1, LRP receptor (Mus musculus, UniProt Q91ZX7); assay: Competitive binding and cross-linking of LRP ligands with 125I-CTGF on BMS-2 cells; set-up: species or system murine; details: 50 pM 125I-CTGF; CTGF 21.5 nM, BP5 201-218 50 μg/ml, LF 25 μg/ml, apo E 20 μg/ml, LpL 20 μg/ml
T1 construct: endogenous in cells; host or cells: BMS2 (BMS-2) murine bone marrow stromal cells
Description: To examine whether ligands known to bind to LRP inhibit CTGF binding, BMS-2 cells were labeled with 50 pM ^125I-CTGF in the presence or absence of unlabeled ligand (CTGF: 21.5 nM; BP5^201-218: 50 μg/ml or […] (Campbell and Andress, 1997, Am. J. Physiol., 273:E1005-13); lactoferrin (LF): 25 μg/ml or 250 nM; apo E: 20 μg/ml or 574 nM; lipoprotein lipase (LpL): 20 μg/ml or 400 nM). The cells were cross-linked and the receptor complexes were solubilized, processed on SDS-PAGE and visualized by autoradiography.

MG63 cells [2] = assay: Protein synthesis in the presence of PEA as measure of LRP internalization activity; format: cell-based, human; details: 20 ng/ml TGF-β for 48 hours, 14C-amino acid pulse
Description: Pseudomonas exotoxin A (PEA) is a ligand for LRP, and following internalization is degraded in lysosomes. One of the degradation products contains PEA domain III, which promotes ADP-ribosylation of elongation factor-2, inhibiting protein synthesis. Protein synthesis in the presence of various concentrations of PEA was used to measure the internalization activity of LRP. To test whether TGF-β altered LRP activity for PEA internalization, MG63 cells were treated with 20 ng/ml TGF-β for 48 hours, then treated with various concentrations of PEA. After 2 hours, protein synthesis was monitored with an overnight pulse of ^14C-amino acids. The cell layers were extracted with 10% trichloroacetic acid and counted.

MG63 cells [3] = assay: Internalization and degradation of 125I-rhCTGF during binding, with additives; format: cell-based, human; details: two hour incubation at 37° C.
MG63 cells [4] = assay: Internalization and degradation time course of 125I-rhCTGF after TGF-β treatment; format: cell-based, human
Description: To examine whether LRP function was altered by TGF-β treatment, the following experiments were conducted. MG63 cells were plated at 2.5×10^4 cells/cm^2 in MEM with 10% FBS. The following day, the cells were rinsed with MEM containing 0.5% MEM and incubated in this low serum medium with or without 20 ng/ml of TGF-β2. At 24 or 48 hours the cells were rinsed twice with binding medium, then incubated at 4° C. for 3 hours with 0.2 nM ^125I-rhCTGF. After incubation, the cells were rinsed 4 times with binding buffer at 4° C., then fresh binding buffer pre-warmed to 37° C. was added and the cells continued incubation at 37° C. At time points of 0, 15, 30, 60, 120 and 180 min, the media were collected and processed by precipitation with 10% TCA. The cell layer was processed by trypsination of the cells. Pellets and supernatants were separated and counted for each point.

LRP = assay: Cross-linking and equilibrium binding of 125I-rhCTGF on MEF1, PEA 10 and PEA 13 cells; set-up: species or system murine
Description: Three cell lines useful for a complete genetic system for the study of LRP function were generated by Willnow and Herz (1994, J. Cell Sci. 103:719-726) and obtained from the American Type Culture Collection (ATCC). The wild type line, MEF1, are fibroblasts originating from murine embryos and are homozygous positive for LRP expression. Fibroblasts that carry one or two copies of the defective LRP allele from hybrid embryos (see Herz et al.(1992) Cell. 71:411-21) were cultured in Pseudomonas exotoxin A (PEA) and the resistant clones, PEA 10 and PEA 13, which are heterozygous and homozygous, respectively, for LRP deficiency. Resistance to Pseudomonas exotoxin A by PEA 10 and PEA 13 cell lines, as well as sensitivity by MEF1 cells, was confirmed by growth in 30 ng/ml Pseudomonas exotoxin A after receipt from ATCC.
The three cell lines were cultured and plated for affinity binding with radiolabeled CTGF, cross-linking and gel analysis. Specifically, cross-linking of ^125I-rhCTGF to monolayers of MEF1, PEA 10 and PEA 13 cells were carried out as follows: Cells plated in 6-well dishes were incubated at 4° C. with 0.2 nM ^125I-rhCTGF in the presence (+) or absence (−) of a 200 fold excess of unlabeled rhCTGF in a binding buffer of PBS, 0.2% BSA, 0.02% sodium azide. After a 3 hour period of labeling, cells were cross-linked with 0.5 mM BS^3 for 15 minutes at room temperature. […]

CTGF receptor = assay: Cell survey of CTGF cross-linked receptor complexes; format: binding
[5] = target: T2, CTGF receptor on MG63 cells (Homo sapiens, UniProt Q07954); assay: Specificity of CTGF binding in the presence of known growth factors, cross-linking; details: 200 pM 125I-CTGF, growth factor at 1 μg/ml
T2 construct: endogenous in cells; host or cells: MG63 human osteosarcoma cells
Description: The specificity of CTGF binding to the CTGF receptor was analyzed by performing an affinity binding experiment in the presence of a number of known growth factors. MG63 cells were labeled with 200 pM ^125I-CTGF in the presence of the indicated growth factor at 1 μg/ml. The cells were cross-linked with S-SMCC and the cell lysates were reduced prior to SDS-PAGE.

[6] = target: T3, high Mr CTGF binding protein on BMS-2 cells (Mus musculus, UniProt Q91ZX7); assay: Binding analysis of 125I-CTGF competition with LRP ligands on BMS-2 cells; set-up: species or system murine; details: 0.1 nM 125I-CTGF
T3 construct: endogenous in cells; host or cells: BMS2 (BMS-2) murine bone marrow stromal cells
Description: BMS-2 cells were incubated with 0.1 nM ^125I-CTGF in the presence of unlabeled CTGF, recombinant human apoE, low density lipoprotein purified from human plasma (LDL), or lipoprotein lipase purified from bovine milk (LpL).

[7] = 20 ng/ml TGF-β2, 48 hour exposure

T1 sequence (Q91ZX7 20-4545): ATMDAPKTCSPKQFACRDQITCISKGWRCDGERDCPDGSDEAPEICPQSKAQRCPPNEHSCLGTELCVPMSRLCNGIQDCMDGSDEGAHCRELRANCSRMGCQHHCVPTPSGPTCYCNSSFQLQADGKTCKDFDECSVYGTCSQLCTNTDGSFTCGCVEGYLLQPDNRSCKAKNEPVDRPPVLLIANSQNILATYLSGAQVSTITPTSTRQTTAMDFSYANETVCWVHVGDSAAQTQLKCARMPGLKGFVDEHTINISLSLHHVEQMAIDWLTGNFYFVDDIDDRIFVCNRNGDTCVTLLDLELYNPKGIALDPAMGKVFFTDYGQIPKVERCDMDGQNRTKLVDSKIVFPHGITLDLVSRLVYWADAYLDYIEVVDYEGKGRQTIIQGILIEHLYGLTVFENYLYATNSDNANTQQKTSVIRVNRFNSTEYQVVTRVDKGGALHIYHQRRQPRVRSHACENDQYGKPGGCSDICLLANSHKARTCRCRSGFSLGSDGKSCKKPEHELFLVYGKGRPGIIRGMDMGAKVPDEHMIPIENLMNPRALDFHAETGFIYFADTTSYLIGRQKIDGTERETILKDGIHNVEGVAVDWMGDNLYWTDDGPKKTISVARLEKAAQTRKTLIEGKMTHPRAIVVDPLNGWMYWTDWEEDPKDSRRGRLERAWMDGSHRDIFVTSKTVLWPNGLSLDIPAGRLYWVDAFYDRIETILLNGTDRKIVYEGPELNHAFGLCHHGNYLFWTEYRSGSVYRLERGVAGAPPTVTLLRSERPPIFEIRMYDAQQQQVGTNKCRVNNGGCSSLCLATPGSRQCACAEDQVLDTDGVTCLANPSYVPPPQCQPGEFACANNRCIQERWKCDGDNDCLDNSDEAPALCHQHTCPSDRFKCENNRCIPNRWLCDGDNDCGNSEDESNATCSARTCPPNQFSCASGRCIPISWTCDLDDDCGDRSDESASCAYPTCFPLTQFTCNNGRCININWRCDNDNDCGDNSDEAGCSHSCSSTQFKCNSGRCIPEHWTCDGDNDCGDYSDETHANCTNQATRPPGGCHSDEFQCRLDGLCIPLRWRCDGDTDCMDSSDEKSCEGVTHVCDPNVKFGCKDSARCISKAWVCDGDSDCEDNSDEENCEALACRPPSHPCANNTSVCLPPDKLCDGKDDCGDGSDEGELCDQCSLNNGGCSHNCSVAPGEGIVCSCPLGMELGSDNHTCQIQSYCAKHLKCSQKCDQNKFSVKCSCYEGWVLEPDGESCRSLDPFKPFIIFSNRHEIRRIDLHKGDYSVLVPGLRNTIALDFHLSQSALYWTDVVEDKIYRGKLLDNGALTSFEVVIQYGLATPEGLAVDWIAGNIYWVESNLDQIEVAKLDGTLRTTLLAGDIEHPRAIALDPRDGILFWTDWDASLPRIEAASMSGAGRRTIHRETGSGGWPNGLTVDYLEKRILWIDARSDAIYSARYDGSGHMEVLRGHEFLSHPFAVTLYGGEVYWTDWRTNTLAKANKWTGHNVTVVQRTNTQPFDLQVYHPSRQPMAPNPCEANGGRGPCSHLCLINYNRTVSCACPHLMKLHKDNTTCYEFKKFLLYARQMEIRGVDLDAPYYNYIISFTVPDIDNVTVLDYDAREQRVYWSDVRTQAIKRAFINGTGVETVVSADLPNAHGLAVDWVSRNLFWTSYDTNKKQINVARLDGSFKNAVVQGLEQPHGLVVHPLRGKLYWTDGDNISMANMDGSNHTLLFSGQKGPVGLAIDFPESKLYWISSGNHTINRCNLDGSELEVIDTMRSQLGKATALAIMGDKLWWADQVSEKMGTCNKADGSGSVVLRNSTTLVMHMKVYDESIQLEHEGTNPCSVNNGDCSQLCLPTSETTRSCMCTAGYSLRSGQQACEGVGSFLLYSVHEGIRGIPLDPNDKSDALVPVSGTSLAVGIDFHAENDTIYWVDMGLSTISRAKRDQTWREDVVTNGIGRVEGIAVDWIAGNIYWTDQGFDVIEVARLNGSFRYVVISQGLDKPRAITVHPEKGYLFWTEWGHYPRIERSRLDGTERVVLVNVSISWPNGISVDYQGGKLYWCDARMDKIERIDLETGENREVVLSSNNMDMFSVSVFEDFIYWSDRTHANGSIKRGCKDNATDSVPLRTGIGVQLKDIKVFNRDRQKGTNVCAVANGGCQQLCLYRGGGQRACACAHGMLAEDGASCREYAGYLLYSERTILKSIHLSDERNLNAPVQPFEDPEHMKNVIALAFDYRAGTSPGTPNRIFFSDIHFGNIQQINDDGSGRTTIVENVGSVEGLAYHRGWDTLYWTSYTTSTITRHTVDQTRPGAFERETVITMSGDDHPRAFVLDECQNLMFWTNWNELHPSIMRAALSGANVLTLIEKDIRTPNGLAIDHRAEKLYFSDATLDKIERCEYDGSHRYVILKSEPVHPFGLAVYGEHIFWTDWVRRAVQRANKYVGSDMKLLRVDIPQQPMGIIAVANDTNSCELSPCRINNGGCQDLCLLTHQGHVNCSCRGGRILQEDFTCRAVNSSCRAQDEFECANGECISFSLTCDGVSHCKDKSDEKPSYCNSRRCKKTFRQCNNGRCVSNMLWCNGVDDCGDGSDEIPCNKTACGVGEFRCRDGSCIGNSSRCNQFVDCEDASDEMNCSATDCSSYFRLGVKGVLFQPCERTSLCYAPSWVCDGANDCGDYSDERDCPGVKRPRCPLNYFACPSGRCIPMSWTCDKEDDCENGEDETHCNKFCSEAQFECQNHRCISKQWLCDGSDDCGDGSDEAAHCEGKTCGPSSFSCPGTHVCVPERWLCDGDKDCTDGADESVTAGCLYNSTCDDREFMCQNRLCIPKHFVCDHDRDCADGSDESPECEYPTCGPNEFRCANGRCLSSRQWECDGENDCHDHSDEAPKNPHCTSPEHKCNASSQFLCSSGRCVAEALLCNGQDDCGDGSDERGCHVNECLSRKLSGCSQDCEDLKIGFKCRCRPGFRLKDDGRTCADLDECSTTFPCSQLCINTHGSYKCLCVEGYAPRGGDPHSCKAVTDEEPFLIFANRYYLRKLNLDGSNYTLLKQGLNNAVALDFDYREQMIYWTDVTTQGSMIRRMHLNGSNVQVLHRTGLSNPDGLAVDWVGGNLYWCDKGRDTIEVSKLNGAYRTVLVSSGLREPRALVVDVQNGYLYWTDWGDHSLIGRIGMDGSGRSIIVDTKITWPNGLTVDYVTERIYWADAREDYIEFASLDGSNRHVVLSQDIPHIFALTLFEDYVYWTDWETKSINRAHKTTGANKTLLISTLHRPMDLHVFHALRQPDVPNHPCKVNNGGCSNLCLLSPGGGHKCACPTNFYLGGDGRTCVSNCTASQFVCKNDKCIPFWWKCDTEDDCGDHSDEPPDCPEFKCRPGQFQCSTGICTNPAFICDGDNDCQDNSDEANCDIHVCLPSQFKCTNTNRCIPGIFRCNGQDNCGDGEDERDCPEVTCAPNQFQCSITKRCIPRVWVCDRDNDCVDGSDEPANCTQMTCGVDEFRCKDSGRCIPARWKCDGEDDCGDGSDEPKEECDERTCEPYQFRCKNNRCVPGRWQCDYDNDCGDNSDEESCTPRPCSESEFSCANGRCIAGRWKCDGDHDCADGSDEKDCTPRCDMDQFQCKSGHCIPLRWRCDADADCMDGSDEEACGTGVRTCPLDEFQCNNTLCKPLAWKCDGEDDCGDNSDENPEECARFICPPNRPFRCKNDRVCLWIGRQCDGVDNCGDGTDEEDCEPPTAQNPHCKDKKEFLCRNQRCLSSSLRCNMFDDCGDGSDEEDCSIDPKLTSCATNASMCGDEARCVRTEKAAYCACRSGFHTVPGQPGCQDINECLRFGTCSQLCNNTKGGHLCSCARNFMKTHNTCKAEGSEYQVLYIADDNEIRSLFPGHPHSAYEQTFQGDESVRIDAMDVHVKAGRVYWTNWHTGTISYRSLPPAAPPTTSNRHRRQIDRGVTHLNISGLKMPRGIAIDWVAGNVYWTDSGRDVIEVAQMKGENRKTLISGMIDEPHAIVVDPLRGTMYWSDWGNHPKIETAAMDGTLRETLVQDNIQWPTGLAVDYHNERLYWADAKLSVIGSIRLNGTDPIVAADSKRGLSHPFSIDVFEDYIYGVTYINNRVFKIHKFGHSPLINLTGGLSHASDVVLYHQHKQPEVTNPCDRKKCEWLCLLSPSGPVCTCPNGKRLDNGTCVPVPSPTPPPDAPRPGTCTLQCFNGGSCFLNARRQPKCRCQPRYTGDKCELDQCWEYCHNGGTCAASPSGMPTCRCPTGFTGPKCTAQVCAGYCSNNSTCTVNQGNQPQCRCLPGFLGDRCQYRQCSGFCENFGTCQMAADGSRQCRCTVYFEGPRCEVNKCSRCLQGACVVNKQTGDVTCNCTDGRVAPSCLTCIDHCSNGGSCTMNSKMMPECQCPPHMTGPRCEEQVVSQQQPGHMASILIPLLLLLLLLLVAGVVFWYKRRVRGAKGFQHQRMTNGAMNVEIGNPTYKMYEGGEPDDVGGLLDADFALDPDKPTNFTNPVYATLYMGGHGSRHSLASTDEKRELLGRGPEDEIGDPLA
T3 sequence (Q91ZX7 20-4545): as above

B1: lactoferrin (protein, UniProt P02788 20-710, looked up)
Lactotransferrin: GRRRSVQWCAVSQPEATKCFQWQRNMRKVRGPPVSCIKRDSPIQCIQAIAENRADAVTLDGGFIYEAGLAPYKLRPVAAEVYGTERQPRTHYYAVAVVKKGGSFQLNELQGLKSCHTGLRRTAGWNVPIGTLRPFLNWTGPPEPIEAAVARFFSASCVPGADKGQFPNLCRLCAGTGENKCAFSSQEPYFSYSGAFKCLRDGAGDVAFIRESTVFEDLSDEAERDEYELLCPDNTRKPVDKFKDCHLARVPSHAVVARSVNGKEDAIWNLLRQAQEKFGKDKSPKFQLFGSPSGQKDLLFKDSAIGFSRVPPRIDSGLYLGSGYFTAIQNLRKSEEEVAARRARVVWCAVGEQELRKCNQWSGLSEGSVTCSSASTTEDCIALVLKGEADAMSLDGGYVYTAGKCGLVPVLAENYKSQQSSDPDPNCVDRPVEGYLAVAVVRRSDTSLTWNSVKGKKSCHTAVDRTAGWNIPMGLLFNQTGSCKFDEYFSQSCAPGSDPRSNLCALCIGDEQGENKCVPNSNERYYGYTGAFRCLAENAGDVAFVKDVTVLQNTDGNNNEAWAKDLKLADFALLCLDGKRKPVTEARSCHLAMAPNHAVVSRMDKVERLKQVLLHQQAKFGRNGSDCPDKFCLFQSETKNLLFNDNTECLARLHGKTTYEKYLGPQYVAGITNLKKCSTSPLLEACEFLRK
notes: known LRP ligand
For B1, which “rate of degradation of CTGF” value (MG63 cells [1]; 3 μg/ml heparin or lactoferrin) is on record?
The value was “reduced the rate”.

And the “rate of internalization of CTGF” value (MG63 cells [1]; 3 μg/ml heparin or lactoferrin)?
The value was “reduced the rate”.

What about the “competing the binding to the LRP receptor” value (“competing the binding” below) (LRP receptor) of the same molecule?
The value was “very effective in competing”.

B2: transforming growth factor beta (protein)
chain: ALDAAYCFRNVQDNCCLRPLYIDFKRDLGWKWIHEPKGYNANFCAGACPYLWSSDTQHSRVLSLYNTINPEASASPCCVSQDLEPLTILYYIGKTPKIEQLSNMIVKSCKCS
notes: growth factor, 20 ng/ml TGF-β2 used to treat MG63 cells
For B2, which “sensitivity to PEA, TGF-β treated cells less sensitive than control cells” value (MG63 cells [2]) is on record?
Its value is “about 3 fold”.

And the “CTGF degraded, TGF-β treated cells” value (MG63 cells [3]; 48 hours post-TGF-β exposure)?
The value was 400 fmol.

What about the “CTGF specifically internalized, TGF-β treated cells” value (MG63 cells [3]; 48 hours post-TGF-β exposure) of the same molecule?
Its value is “about 150 fmoles”.

And the “degradation of 125I-CTGF, control cells relative to TGF-β treated cells” value (MG63 cells [4]; [7])?
The value was “at least 3 fold”.

What about the “internalization of CTGF in TGF-β treated cells” value (MG63 cells [4]; [7]) of the same molecule?
The value was “more modest internalization”.

What about the “internalization and degradation of CTGF by CTGF receptor (LRP), lower in TGF-β treated cells” value (MG63 cells [4]; TGF-β treated versus control cells) of the same molecule?
Its value is “about 3 fold”.

B3: connective tissue growth factor (protein)
chain: QNCSGPCRCPDEPAPRCPAGVSLVLDGCGCCRVCAKQLGELCTERDPCDPHKGLFCHFGSPANRKIGVCTAKDGAPCIFGGTVYRSGESFQSSCKYQCTCLDGAVGCMPLCSMDVRLPSPDCPFPRRVKLPGKCCEEWVCDEPKDQTVVGPALAAYRLEDTFGPDPTMIRANCLVQTTEWSACSKTCGMGISTRVTNDNASCRLEKQSRLCMVRPCEADLEENIKKGKKCIRTPKISKPIKFELSGCTSMKTYRAKFCGVCTDGRCCTPHRTTTLPVEFKCPDGEVMKKNMMFIKTCACHYNCPGDNDIFESLYYRKMYGDMA
notes: recombinant human CTGF produced in baculovirus-infected Hi 5 insect cells, also used radioiodinated
Which “time of internalization of CTGF” value (MG63 cells [1]; 37° C. after binding at 4° C.) does the source give for B3 here?
The value was ≤ 30 min.

And the “cross-linked signal co-migrating with the complex, PEA 13 cells” value (LRP; 0.2 nM 125I-rhCTGF, BS3, overexposed autoradiograph)?
The value was “no signal”.

What about the “CTGF binding on PEA 13 cells” value (LRP; PEA 13, homozygous LRP deficient) of the same molecule?
The value was “no binding was detected”.

And the “CTGF specifically internalized, control cells” value (MG63 cells [3]; 0.2 nM 125I-rhCTGF, no TGF-β)?
The value was “approximately 260 fmoles CTGF/mg cell protein”.

And the “CTGF degraded, control cells” value (MG63 cells [3]; no TGF-β)?
The value was “About 1000 fmoles/mg cell protein”.

What about the “cross-linking of CTGF to CHO and MLEC cells” value (CTGF receptor) of the same molecule?
The value was “did not appear to cross-link”.

What about the “competing the binding” value (LRP receptor) of the same molecule?
The value was “most effective”.

What about the “competition for CTGF binding to the cell surface” value [5] of the same molecule?
Its value is “effectively competed”.

B4: lipoprotein lipase (protein)
chain: DRITGGKDFRDIESKFALRTPEDTAEDTCHLIPGVTESVANCHFNHSSKTFVVIHGWTVTGMYESWVPKLVAALYKREPDSNVIVVDWLSRAQQHYPVSAGYTKLVGQDVAKFMNWMADEFNYPLGNVHLLGYSLGAHAAGIAGSLTNKKVNRITGLDPAGPNFEYAEAPSRLSPDDADFVDVLHTFTRGSPGRSIGIQKPVGHVDIYPNGGTFQPGCNIGEALRVIAERGLGDVDQLVKCSHERSVHLFIDSLLNEENPSKAYRCNSKEAFEKGLCLSCRKNRCNNMGYEINKVRAKRSSKMYLKTRSQMPYKVFHYQVKIHFSGTESNTYTNQAFEISLYGTVAESENIPFTLPEVSTNKTYSFLLYTEVDIGELLMLKLKWISDSYFSWSNWWSSPGFDIGKIRVKAGETQKKVIFCSREKMSYLQKGKSPVIFVKCHDKSLNRKSG
notes: lipoprotein lipase purified from bovine milk, known LRP ligand
With B4 as the molecule, how does the “competition with 125I-CTGF” value [6] read?
Its value is “competed”.

And the “competing the binding” value (LRP receptor)?
Its value is “very effective in competing”.
